The source of these data is the supplement of paper PMC7877785.

± gives the uncertainty stated by the source.

The nature of this data set: self-splicing fitness, log relative to wild type (ln ratio); higher = more splicing; Tetrahymena group I intron in knt gene, E. coli kanamycin selection, DiMSum; sequences stand for … in CUCUCU…GGAGGGAAAAGUUAUCAGGCAUGCACCUGGUAGCUAGUCUUUAAACCAAUAGAUUGCAUCGGUUUAAAAGGCAAGACCGUCAAAUUGCGGGAAAGGGGUCAACAGCCGUUCAGUACCAAGUCUCAGGGGAAACUUUGAGAUGGCCUUGCAAAGGGUAUGGUAAUAAGCUGACGGACAUGGUCCUAACCACGCAGCCAAGUCCUAAGUCAACAGAUCUUCUGUUGAUAUGGAUGCAGUUCACAGACUAAAUGUCGGUCGGGGAAGAUGUAUUCUUCUCAUAAGAUAUAGUCGGACCUCUCCUUAAUGGGAGCUAGCGGAUGAAGUGAUGCAACACUGGAGCCGCUGGGAACUAAUUUGUAUGCGAAAGUAUAUUGAUUAGUUUUGGAGUACUCGUGGUCG
The method in brief: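 Pooled colonies went to amplicon sequencing on an Illumina HiSeq 2500 after six replicate transformations. The plates were LB agar with 100 μg/mL carbenicillin, 50 μM IPTG and 0.2% rhamnose, with or without 25 μg/mL kanamycin, incubated overnight at 37°C or 30°C. The E. coli BL21(DE3) library had all eight P1ex-region intron nucleotides randomised, the intron placed in the knt kanamycin-resistance gene on pET-22b(+). DiMSum fitness is the error-weighted combination of replicate fold changes, kanamycin against none, normalised to wild type.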

Turning to ACUAAGCAAUAUUACGCAAA, the “self-splicing fitness (ln)” value was -2.51 ± 0.24 (30 °C) and -1.77 ± 0.24 (37 °C).

Take ACUAAGCAAUAUUACGCAAC: the “self-splicing fitness (ln)” value by setting is: (30 °C) -3.28 ± 0.26; (37 °C) -1.17 ± 0.27.

For ACUAAGCAAUAUUACGCAAG, the “self-splicing fitness (ln)” value is, setting by setting: (30 °C) -1.79 ± 0.074; (37 °C) -1.49 ± 0.096.

On to ACUAAGCAAUAUUACGCACA, for which the “self-splicing fitness (ln)” value (30 °C) was -1.23 ± 0.11 and the “self-splicing fitness (ln)” value (37 °C) is 0.0989 ± 0.1.

For the sequence ACUAAGCAAUAUUACGCGCG, the “self-splicing fitness (ln)” value was -0.732 ± 0.096 (30 °C) and -0.0128 ± 0.13 (37 °C).

As to ACUAAGCAAUAUUACGCGGG, the “self-splicing fitness (ln)” value (30 °C) was -2.3 ± 0.18 and the “self-splicing fitness (ln)” value (37 °C) was -1.36 ± 0.15.

As for ACUAAGCAAUAUUACGCUAG, the “self-splicing fitness (ln)” value reads like this: (30 °C) -2.68 ± 0.14; (37 °C) -1.82 ± 0.17.

With ACUAAGCAAUAUUACGCUGU, the “self-splicing fitness (ln)” value (30 °C) is -2.77 ± 0.17 and the “self-splicing fitness (ln)” value (37 °C) is -2.58 ± 0.35.

As for ACUAAGCAAUAUUACGGAAC, the “self-splicing fitness (ln)” value is, setting by setting: (30 °C) -3.33 ± 0.29; (37 °C) -2.77 ± 0.32.

Consider ACUAAGCAAUAUUACGGACC, for which the “self-splicing fitness (ln)” value reads like this: (30 °C) -1.4 ± 0.15; (37 °C) -0.596 ± 0.19.

For ACUAAGCAAUAUUACGGAGA, the “self-splicing fitness (ln)” value (30 °C) was -1.36 ± 0.23 and the “self-splicing fitness (ln)” value (37 °C) was -3.35 ± 0.33.

As to ACUAAGCAAUAUUACGGCAU, the “self-splicing fitness (ln)” value (30 °C) is -0.539 ± 0.062 and the “self-splicing fitness (ln)” value (37 °C) was -0.563 ± 0.09.

Regarding ACUAAGCAAUAUUACGGCUA, the “self-splicing fitness (ln)” value by setting is: (30 °C) -0.685 ± 0.085; (37 °C) 0.0711 ± 0.11.

For the sequence ACUAAGCAAUAUUACGGGAA, the “self-splicing fitness (ln)” value by setting is: (30 °C) -2.17 ± 0.11; (37 °C) -1.75 ± 0.15.

ACUAAGCAAUAUUACGGGCG: the “self-splicing fitness (ln)” value (30 °C) was -0.856 ± 0.091 and the “self-splicing fitness (ln)” value (37 °C) was -0.529 ± 0.1.

In the case of ACUAAGCAAUAUUACGGGUG, the “self-splicing fitness (ln)” value (30 °C) is -0.981 ± 0.06 and the “self-splicing fitness (ln)” value (37 °C) was -0.673 ± 0.097.

ACUAAGCAAUAUUACGGGUU: the “self-splicing fitness (ln)” value (30 °C) was -3.17 ± 0.16 and the “self-splicing fitness (ln)” value (37 °C) was -2.34 ± 0.23.

Regarding ACUAAGCAAUAUUACGGUAA, the “self-splicing fitness (ln)” value is -1.56 ± 0.17 (30 °C) and -1.92 ± 0.18 (37 °C).

Take ACUAAGCAAUAUUACGGUCC: the “self-splicing fitness (ln)” value runs as follows: (30 °C) -2.35 ± 0.2; (37 °C) -1.04 ± 0.23.

Take ACUAAGCAAUAUUACGGUCG: the “self-splicing fitness (ln)” value is -2.89 ± 0.16 (30 °C) and -1.47 ± 0.15 (37 °C).

Consider ACUAAGCAAUAUUACGGUGA, for which the “self-splicing fitness (ln)” value (30 °C) is -1.54 ± 0.093 and the “self-splicing fitness (ln)” value (37 °C) is -0.619 ± 0.13.

On to ACUAAGCAAUAUUACGUAAG, for which the “self-splicing fitness (ln)” value by setting is: (30 °C) -1.05 ± 0.069; (37 °C) -0.663 ± 0.089.

Turning to ACUAAGCAAUAUUACGUAUA, the “self-splicing fitness (ln)” value was -1.9 ± 0.13 (30 °C) and -0.679 ± 0.12 (37 °C).

Turning to ACUAAGCAAUAUUACGUCCG, the “self-splicing fitness (ln)” value by setting is: (30 °C) -1.69 ± 0.12; (37 °C) -0.322 ± 0.17.

For ACUAAGCAAUAUUACGUGAA, the “self-splicing fitness (ln)” value runs as follows: (30 °C) -1.24 ± 0.074; (37 °C) -0.939 ± 0.1.

Turning to ACUAAGCAAUAUUACGUGGC, the “self-splicing fitness (ln)” value is, setting by setting: (30 °C) -3.03 ± 0.14; (37 °C) -2.57 ± 0.17.

Consider ACUCAGCAAUAUUACGAAAC, for which the “self-splicing fitness (ln)” value was -2.62 ± 0.092 (30 °C) and -1.43 ± 0.11 (37 °C).

On to ACUCAGCAAUAUUACGAACA, for which the “self-splicing fitness (ln)” value (30 °C) is -1.16 ± 0.076 and the “self-splicing fitness (ln)” value (37 °C) was -0.892 ± 0.09.

In the case of ACUCAGCAAUAUUACGAAGU, the “self-splicing fitness (ln)” value reads like this: (30 °C) -3 ± 0.14; (37 °C) -1.75 ± 0.14.

Turning to ACUCAGCAAUAUUACGAAUC, the “self-splicing fitness (ln)” value (37 °C) was -1.05 ± 0.32.

For the sequence ACUCAGCAAUAUUACGACAA, the “self-splicing fitness (ln)” value is -0.977 ± 0.27 (30 °C) and -1.18 ± 0.24 (37 °C).

As for ACUCAGCAAUAUUACGACUG, the “self-splicing fitness (ln)” value reads like this: (30 °C) -3.86 ± 0.23; (37 °C) -1.47 ± 0.14.

As to ACUCAGCAAUAUUACGAGAC, the “self-splicing fitness (ln)” value was -2.7 ± 0.24 (30 °C) and -1.87 ± 0.17 (37 °C).

As to ACUCAGCAAUAUUACGAGAG, the “self-splicing fitness (ln)” value is, setting by setting: (30 °C) -2.02 ± 0.14; (37 °C) -0.637 ± 0.12.

Turning to ACUCAGCAAUAUUACGAGGC, the “self-splicing fitness (ln)” value is, setting by setting: (30 °C) -3.27 ± 0.34; (37 °C) -2.56 ± 0.3.

For the sequence ACUCAGCAAUAUUACGAUAA, the “self-splicing fitness (ln)” value by setting is: (30 °C) -1.25 ± 0.078; (37 °C) -0.67 ± 0.097.

For the sequence ACUCAGCAAUAUUACGAUGC, the “self-splicing fitness (ln)” value by setting is: (30 °C) -0.776 ± 0.066; (37 °C) -0.0529 ± 0.075.
